Reference: publication PMC3961330

Experiments:
[1] = tested on: PPARalpha (rat liver nuclear extract);RXRalpha (rat liver nuclear extract) (rat;rat); experiment: EMSA with anti-PPARalpha supershift; conditions: OEA-treated rats; anti-PPARalpha antibody; 10 mM HEPES pH 7.9, 150 mM KCl, 1 mM DTT, 0.2 ug/uL poly(dI-C), 5% glycerol; 15 min on ice then 15 min with probe at room temperature; 8% native PAGE, 0.5x TBE
[2] = tested on: PPARalpha (rat liver nuclear extract);RXRalpha (rat liver nuclear extract) (rat;rat); experiment: EMSA; conditions: OEA-treated rats; 10 mM HEPES pH 7.9, 150 mM KCl, 1 mM DTT, 0.2 ug/uL poly(dI-C), 5% glycerol; 15 min on ice then 15 min with probe at room temperature; 8% native PAGE, 0.5x TBE

Substance: ACOX-PPRE
- binding signal (fold vs vehicle (supershifted complex)) [1]: > 3
- binding signal (fold vs vehicle) [2]: 2
